Assay results reported in article PMC11414716, “Structural insights into polyamine spermidine uptake by the ABC transporter PotD-PotABC” (Science Advances, 2024).

Experiments:
[1] = target: the molecule itself; test: cryo-EM structure; wild-type PotABC complex reconstituted into MSP1E3D1/asolectin nanodiscs, with ATP, Mg2+ and Spd; map at 3.5 Å
[2] = target: the molecule itself; test: cryo-EM structure; PotD-PotABC E173Q complex formed with Spd, ATP and Mg2+, in LMNG; Spd-bound pretranslocation state (3.1 Å) and ATP-bound translocation intermediate state (3 Å; dataset 2 with 3 mM Fos-Choline-8)
[3] = target: T1, PotD (wild type), spermidine-binding protein (E. coli K12, UniProt P0AFK9 24-348); test: as above; details: both partners purified
T1 construct: expressed from the entire potABCD operon; Hexahistidine tag is called noncleavable; also called PoD wild-type; source: E. coli C41, expressed from the potABCD operon with the tag on PotD; purified (Ni-NTA, Superose 6 SEC); in lysate for the co-purification attempt; not shown: His6, C-terminal, kept
T1 sequence (looked up): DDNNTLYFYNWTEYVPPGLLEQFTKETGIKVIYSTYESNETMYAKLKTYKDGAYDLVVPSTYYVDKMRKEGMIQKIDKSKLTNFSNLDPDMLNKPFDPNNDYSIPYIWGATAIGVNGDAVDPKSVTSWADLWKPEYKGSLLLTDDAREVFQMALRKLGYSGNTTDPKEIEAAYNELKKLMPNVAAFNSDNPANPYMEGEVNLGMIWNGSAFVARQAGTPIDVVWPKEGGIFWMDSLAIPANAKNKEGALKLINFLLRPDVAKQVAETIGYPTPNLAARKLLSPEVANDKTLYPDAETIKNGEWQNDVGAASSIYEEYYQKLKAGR

B1: PotA (wild type) (natural protein, E. coli K12, UniProt P69874 1-378, looked up)
chain: MGQSKKLNKQPSSLSPLVQLAGIRKCFDGKEVIPQLDLTINNGEFLTLLGPSGCGKTTVLRLIAGLETVDSGRIMLDNEDITHVPAENRYVNTVFQSYALFPHMTVFENVAFGLRMQKTPAAEITPRVMEALRMVQLETFAQRKPHQLSGGQQQRVAIARAVVNKPRLLLLDESLSALDYKLRKQMQNELKALQRKLGITFVFVTHDQEEALTMSDRIVVMRDGRIEQDGTPREIYEEPKNLFVAGFIGEINMFNATVIERLDEQRVRANVEGRECNIYVNFAVEPGQKLHVLLRPEDLRVEEINDDNHAEGLIGYVRERNYKGMTLESVVELENGKMVMVSEFFNEDDPDFDHSLDQKMAINWVESWEVVLADEEHK
notes: PotA, cytosolic ATPase subunit, E. coli K12; the entire potABCD operon was cloned; Subunit of the wild-type PotABC complex solved in nanodiscs
binding result [1]: binds

B2: PotA E173Q (natural protein, E. coli K12, UniProt P69874 1-378, looked up)
chain: MGQSKKLNKQPSSLSPLVQLAGIRKCFDGKEVIPQLDLTINNGEFLTLLGPSGCGKTTVLRLIAGLETVDSGRIMLDNEDITHVPAENRYVNTVFQSYALFPHMTVFENVAFGLRMQKTPAAEITPRVMEALRMVQLETFAQRKPHQLSGGQQQRVAIARAVVNKPRLLLLDQSLSALDYKLRKQMQNELKALQRKLGITFVFVTHDQEEALTMSDRIVVMRDGRIEQDGTPREIYEEPKNLFVAGFIGEINMFNATVIERLDEQRVRANVEGRECNIYVNFAVEPGQKLHVLLRPEDLRVEEINDDNHAEGLIGYVRERNYKGMTLESVVELENGKMVMVSEFFNEDDPDFDHSLDQKMAINWVESWEVVLADEEHK
notes: PotA, cytosolic ATPase subunit (NBD and regulatory domain), E. coli K12; the entire potABCD operon was cloned; Subunit of m1, written alone for the pairs within the solved complexes; source: E. coli C41, co-expressed and purified as part of the PotABC E173Q complex (Ni-NTA, SEC in LMNG)
stoichiometry N [2]: 2

B3: PotB (natural protein, E. coli K12, UniProt P0AFK4 1-275, looked up)
chain: MIVTIVGWLVLFVFLPNLMIIGTSFLTRDDASFVKMVFTLDNYTRLLDPLYFEVLLHSLNMALIATLACLVLGYPFAWFLAKLPHKVRPLLLFLLIVPFWTNSLIRIYGLKIFLSTKGYLNEFLLWLGVIDTPIRIMFTPSAVIIGLVYILLPFMVMPLYSSIEKLDKPLLEAARDLGASKLQTFIRIIIPLTMPGIIAGCLLVMLPAMGLFYVSDLMGGAKNLLIGNVIKVQFLNIRDWPFGAATSITLTIVMGLMLLVYWRASRLLNKKVELE
notes: PotB, transmembrane subunit, E. coli K12; the entire potABCD operon was cloned; Subunit of the PotABC complexes, written alone for the pairs within the solved complexes; source: E. coli C41, co-expressed and purified as part of the PotABC complex (Ni-NTA, SEC in LMNG; wild-type complex also in nanodiscs)
binding result [3]: binds

B4: PotC (natural protein, E. coli K12, UniProt P0AFK6 1-264, looked up)
chain: MIGRLLRGGFMTAIYAYLYIPIIILIVNSFNSSRFGINWQGFTTKWYSLLMNNDSLLQAAQHSLTMAVFSATFATLIGSLTAVALYRYRFRGKPFVSGMLFVVMMSPDIVMAISLLVLFMLLGIQLGFWSLLFSHITFCLPFVVVTVYSRLKGFDVRMLEAAKDLGASEFTILRKIILPLAMPAVAAGWVLSFTLSMDDVVVSSFVTGPSYEILPLKIYSMVKVGVSPEVNALATILLVLSLVMVIASQLIARDKTKGNTGDVK
notes: PotC, transmembrane subunit, E. coli K12; the entire potABCD operon was cloned; Subunit of the PotABC complexes, written alone for the pairs within the solved complexes; That the tag sits on PotC is surmised; source: E. coli C41, co-expressed and purified as part of the PotABC complex (Ni-NTA, SEC in LMNG; wild-type complex also in nanodiscs); not shown: His6 (inferred on PotC: C-terminal tag of …)
binding result [3]: binds
